From the RNAGym collection of RNA variant scans (doi:10.1093/nar/gkz1192)

B1: CPEB3 Ribozyme (parent)
chain: UAACAGGGGGCCACAGCAGAAGCGUUCACGUCGCAGCCCCUGUCAGAUUCUGGUGAAUCUGCGAAUUCUGCUGUAUAUCUC

Variants of: B1
Experiment: self-cleavage, relative activity (ratio to wild type); higher = more cleavage; in vitro, sequencing
How it was run: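 Libraries of CPEB3 self-cleaving ribozyme mutants came from rounds of error-prone PCR and carried barcodes, which DNA sequencing matched to variants. In vitro transcription used T7 RNA polymerase at 37°C for 5 hours, with a further 15 min in DNase I before EDTA stopped the reaction; the ribozymes cleaved during both steps. The RNA was reverse transcribed with template switching and sequenced on Illumina. Relative activity is the cleaved/total read fraction of a variant divided by that of the unmutated ribozyme, averaged over three batches with at least 5 reads.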
Variant UAACAGGGGGCCACAGCAGAAGCGUUCACGUCGCAGCCCCUGUCAGAUUCUGGUGCAUCCGCGAAUUCUGCUGUAUAUCUC has a self-cleavage of 0.18.
Variant UAACAGGGGGCCACAGCAGAAGCGUUCACGUCGCAGCCCCUGUCAGAUUCUGGUCAAUCUGCGAAUUCUGCUGGAUAUCUC has a self-cleavage of 1.13.
Variant UAACAGGGGGCCACAGCAGAAGCGUUCACGUCGCAGCCCCUGUCAGAUUCUGGUUAAUCUGCGAAUUCUGCUGUGUAUCUC has a self-cleavage of 0.92.
For UAACAGGGGGCCACAGCAGAAGCGUUCACGUCGCAGCCCCUGUCAGAUUCUGGUAAAUCUGCGAAUUCUGCUGUAUAACUC, the self-cleavage was 1.
With UAACAGGGGGCCACAGCAGAAGCGUUCACGUCGCAGCCCCUGUCAGAUUCUGGUAAAUCUGCGAAUUCUGCUGUAUACCUC the self-cleavage was 0.75.
UAACAGGGGGCCACAGCAGAAGCGUUCACGUCGCAGCCCCUGUCAGAUUCUGGUCAAUCUGCGAAUUCUGCUGUAUAUCAC showed a self-cleavage of 0.7.
UAACAGGGGGCCACAGCAGAAGCGUUCACGUCGCAGCCCCUGUCAGAUUCUGGUAAAUCAGCGAAUUCUGCUGUAUAUCUC showed a self-cleavage of 0.44.
With UAACAGGGGGCCACAGCAGAAGCGUUCACGUCGCAGCCCCUGUCAGAUUCUGGUAAAUCCGCGAAUUCUGCUGUAUAUCUC the self-cleavage was 0.25.
Variant UAACAGGGGGCCACAGCAGAAGCGUUCACGUCGCAGCCCCUGUCAGAUUCUGGUAAAUCUGCGAAUUCUGCUGAAUAUCUC has a self-cleavage of 1.18.
With UAACAGGGGGCCACAGCAGAAGCGUUCACGUCGCAGCCCCUGUCAGAUUCUGGUGCAUCUGCGAGUUCUGCUGUAUAUCUC the self-cleavage was 0.22.
For UAACAGGGGGCCACAGCAGAAGCGUUCACGUCGCAGCCCCUGUCAGAUUCUGGUAAAUCUGCGAAUUCUGCAGUAUAUCUC, the self-cleavage was 0.53.
UAACAGGGGGCCACAGCAGAAGCGUUCACGUCGCAGCCCCUGUCAGAUUCUGGUAAAUCUGCGAAUUCUGCCGUAUAUCUC gave a self-cleavage of 0.83.
UAACAGGGGGCCACAGCAGAAGCGUUCACGUCGCAGCCCCUGUCAGAUUCUGGUGCAUCUGCGAAUUCUGCUGUAUACCUC showed a self-cleavage of 0.49.
UAACAGGGGGCCACAGCAGAAGCGUUCACGUCGCAGCCCCUGUCAGAUUCUGGUGCAUCUGCGAAUUCUGCCGUAUAUCUC gave a self-cleavage of 0.52.
For UAACAGGGGGCCACAGCAGAAGCGUUCACGUCGCAGCCCCUGUCAGAUUCUGGUGCAUCUGCGAAUUCUGCAGUAUAUCUC, the self-cleavage was 0.18.
UAACAGGGGGCCACAGCAGAAGCGUUCACGUCGCAGCCCCUGUCAGAUUCUGGUUAAUCUGCGAAUUCUGCUGUAUAUCAC showed a self-cleavage of 1.11.
With UAACAGGGGGCCACAGCAGAAGCGUUCACGUCGCAGCCCCUGUCAGAUUCUGGUUAAUCUGCGAAUUCUGCUGUAUAUCCC the self-cleavage was 1.06.
In the case of UAACAGGGGGCCACAGCAGAAGCGUUCACGUCGCAGCCCCUGUCAGAUUCUGGUUAAUCUGCGAAUCCUGCUGUAUAUCUC, the self-cleavage is reported as 0.21.
Work on UAACAGGGGGCCACAGCAGAAGCGUUCACGUCGCAGCCCCUGUCAGAUUCUGGUCAAUCUGCGAAUUCUGCUGUAUGUCUC yielded a self-cleavage of 1.04.
UAACAGGGGGCCACAGCAGAAGCGUUCACGUCGCAGCCCCUGUCAGAUUCUGGUUAAUCUGCGAGUUCUGCUGUAUAUCUC gave a self-cleavage of 0.24.
In the case of UAACAGGGGGCCACAGCAGAAGCGUUCACGUCGCAGCCCCUGUCAGAUUCUGGUUAAUCUGCGAUUUCUGCUGUAUAUCUC, the self-cleavage is reported as 0.31.
UAACAGGGGGCCACAGCAGAAGCGUUCACGUCGCAGCCCCUGUCAGAUUCUGGUGGAUCUGCGAAUUCUGCUGUAUAUCUC gave a self-cleavage of 0.91.
With UAACAGGGGGCCACAGCAGAAGCGUUCACGUCGCAGCCCCUGUCAGAUUCUGGUGCAUCUGCGAAUUCUGCUGUAUAUCUC the self-cleavage was 0.63.
In the case of UAACAGGGGGCCACAGCAGAAGCGUUCACGUCGCAGCCCCUGUCAGAUUCUGGUUAAUCUGCGAAUUCUGCUGCAUAUCUC, the self-cleavage is reported as 1.35.
With UAACAGGGGGCCACAGCAGAAGCGUUCACGUCGCAGCCCCUGUCAGAUUCUGGUCAAUCUGUGAAUUCUGCUGUAUAUCUC the self-cleavage was 0.22.
With UAACAGGGGGCCACAGCAGAAGCGUUCACGUCGCAGCCCCUGUCAGAUUCUGGUAAAUCUGCGAAUUCGGCUGUAUAUCUC the self-cleavage was 0.34.
UAACAGGGGGCCACAGCAGAAGCGUUCACGUCGCAGCCCCUGUCAGAUUCUGGUAAAUCUGCGAAUUCCGCUGUAUAUCUC showed a self-cleavage of 0.28.
For UAACAGGGGGCCACAGCAGAAGCGUUCACGUCGCAGCCCCUGUCAGAUUCUGGUAAAUCUGCGAAUUCAGCUGUAUAUCUC, the self-cleavage was 0.39.
For UAACAGGGGGCCACAGCAGAAGCGUUCACGUCGCAGCCCCUGUCAGAUUCUGGUCAAUCUGCGAAUUCCGCUGUAUAUCUC, the self-cleavage was 0.44.
Variant UAACAGGGGGCCACAGCAGAAGCGUUCACGUCGCAGCCCCUGUCAGAUUCUGGUGCACCUGCGAAUUCUGCUGUAUAUCUC has a self-cleavage of 0.14.
Work on UAACAGGGGGCCACAGCAGAAGCGUUCACGUCGCAGCCCCUGUCAGAUUCUGGUCAAUCUGCGAAUACUGCUGUAUAUCUC yielded a self-cleavage of 0.44.
In the case of UAACAGGGGGCCACAGCAGAAGCGUUCACGUCGCAGCCCCUGUCAGAUUCUGGUCAAUCUGCGAAUUCUGCAGUAUAUCUC, the self-cleavage is reported as 0.4.
Variant UAACAGGGGGCCACAGCAGAAGCGUUCACGUCGCAGCCCCUGUCAGAUUCUGGUAAACCUGCGAAUUCUGCUGUAUAUCUC has a self-cleavage of 0.27.
UAACAGGGGGCCACAGCAGAAGCGUUCACGUCGCAGCCCCUGUCAGAUUCUGGUUAAUCUGCGAACUCUGCUGUAUAUCUC showed a self-cleavage of 0.49.
